For the test, the target named is T1, MexZ (LexA DNA-binding domain fusion encoded by pSF004, pMS604::mexZ) (P. aeruginosa, UniProt G3XCU9 1-210).
T1 construct: also called repressor of mexXY; mexZ product; source: E. coli SU202, bacterial two-hybrid fusion expressed from pSF004 (pMS604::mexZ)
T1 sequence: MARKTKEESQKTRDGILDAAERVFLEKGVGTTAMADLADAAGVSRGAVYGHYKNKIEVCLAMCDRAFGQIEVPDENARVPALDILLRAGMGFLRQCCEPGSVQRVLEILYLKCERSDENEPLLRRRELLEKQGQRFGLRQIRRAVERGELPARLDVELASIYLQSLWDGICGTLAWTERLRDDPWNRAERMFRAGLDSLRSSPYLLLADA
Put plainly: two-hybrid; bacterial LexA-based two-hybrid in E. coli SU202 (pMS604 and pDP804 derivatives); cells grown to mid-log phase in L-broth with 5 mM IPTG; interaction represses lacZ, read as reduced β-galactosidase activity. Particulars: partners not purified.

One molecule from article PMC3575510, “Antibiotic Inducibility of the mexXY Multidrug Efflux Operon of Pseudomonas aeruginosa: Involvement of the MexZ Anti-Repressor ArmZ” (PLoS ONE, 2013) can be followed below.

B1: ArmZ (PA5471) wild type (LexA DNA-binding domain fusion encoded by pSF005, pDP804::armZ) (natural protein)
chain: MGNYIKPLSAGVALIASDSTWIEGKAIQQLQTTAELDGMCRVVGLPDLHPGRGYPVGAAFFSVGRFYPALVGNDIGCGMALWETGLALGKLSADKLEKRLGNLDLPLDETWSDCIEALDLPAREHWRALGTIGGGNHFAELQQVETVFDQAALHALGLDADRLQLLVHSGSRGLGQAILQEHVSLHGHAGLLDGSLEASAYLARHADALRFAEGNRQLIARRILERLRCDGLELLDINHNLVVPAQVDGVDGWLHRKGATPADQGVLVIPGSRGDYSYLVEPVPSAQSLFSLAHGAGRKWQRGECRERLAARFSVDQLGRTRLGSRVICGDRQLIYEEAPEAYKGIDSVVGALLEAGLLRLVARLKPVLTYKTRGECCR
notes: also called anti-repressor MexZ; ArmZ (WT); source: E. coli SU202, bacterial two-hybrid fusion expressed from pSF005 (pDP804::armZ)
Take B1: the “fold reduction of β-galactosidase activity (relative to SU202 carrying the mexZ plasmid only)” value came to 3 fold.
